Earlier results on one substance are cited in publication PMC8189991.

This data set concerns the target Asp96 (UniProt position 109, PLLLLDLALLV). The data set is described as follows: IR.

With “Bacteriorhodopsin (Halobacterium salinarum (not stated in the article; inferred))”, the pKa result was “above 12”.
